Here are results for one molecule from US20070135338A1 (published 2007).

No end group written: not given here.

This experiment addresses GLP-1R on Rinm cells. The experiment in a line: cell-based or functional assay.

Take HAEGTFTSDVSSYLEGQAAKEFIAWLVKGRG (not fully specified) [GLP-1 peptide]: the “cAMP activity in Rinm cells (EC50)” value stood at 0.4 nM.
